The record followed here is US20190330313A1 (HANX BIOPHARMACEUTICS, published 2019).

Test [1] addresses T1, PD-1-hIgGFc antigen (human, UniProt Q15116 25-167, limits assumed).
T1 construct: not shown: human IgG Fc (hIgGFc)
In words: competitive ELISA, PD-1-hIgGFc coated, competitor PDL1-mIgG2aFc 0.3 µg/ml. The protocol: A 96-well ELISA plate was coated with PD-1-hIgGFc antigen in a concentration of 0.5 μg/ml (50 μl per well) by incubation at 4° C. overnight.

Another test deals with T2, PD-1-his antigen (UniProt Q15116 25-167, limits assumed).
T2 construct: not shown: his tag
T2 sequence (Q15116 25-167 limits assumed): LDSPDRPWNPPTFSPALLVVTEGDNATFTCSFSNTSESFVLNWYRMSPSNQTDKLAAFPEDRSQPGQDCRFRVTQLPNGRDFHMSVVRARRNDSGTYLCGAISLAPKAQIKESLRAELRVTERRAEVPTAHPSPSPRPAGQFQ
Kind of test: ELISA, PD-1-his coated at 0.25 µg/ml. The protocol:
An ELISA plate was coated with PD-1-his antigen in a concentration of 0.25 μg/ml (100 μl per well) by incubation at 4° C. overnight.
The ELISA plate coated with the PD-1-his antigen was blocked with 1% BSA in the PBS buffer at 37° C. for 2 hours and washed with 1×PBST buffer containing 1% Tween-20 for three times, with gently patting to dryness.

In test [2] the target is T1, PD-1-hIgGFc antigen. Kind of test: competitive ELISA, PD-1-hIgGFc coated, competitor PDL2-his tag 0.5 µg/ml. The protocol: A 96-well ELISA plate was coated with PD-1-hIgGFc antigen in a concentration of 1.0 μg/ml (100 μl per well) by incubation at 4° C. overnight.
After the 96-well ELISA plate was washed with the PBST buffer for five times and gently patted to dryness, HRP-conjugated monoclonal mouse anti-his tag as a secondary antibody in 1:750 dilution (50 μl per well) was added for incubation at 37° C. for 1 hour.

T1 sequence (Q15116 25-167 limits assumed): as above

B1: humanized H8L2 antibody (IgG-like antibody H8L2 against PD-1) (antibody)
heavy: EVQLVQSGGGLVQPGGSLKLSCAASGFTFSSYGMSWVRQAPGKGLDWVATISGGGRDTYYPDSVKGRFTISRDNSKNNLYLQMNSLRAEDTALYYCARQKGEAWFAYWGQGTLVTVSSASTKGPSVFPLAPCSRSTSESTAALGCLVKDYFPEPVTVSWNSGALTSGVHTFPAVLQSSGLYSLSSVVTVPSSSLGTKTYTCNVDHKPSNTKVDKRVESKYGPPCPPCPAPEFLGGPSVFLFPPKPKDTLMITRTPEVTCVVVDVSQEDPEVQFNWYVDGVEVHNAKTKPREEQFNSTYRVVSVLTPLHQDWLNGKEYKCKVSNKGLPSSIEKTISKAKGQPREPQVYTLPPSQEEMTKNQVSLTCLVKGFYPSDIAVEWESNGQPENNYKTTPPVLDSDGSFFLYSRLTVDKSRWQEGNVFSCSVMHEALHAHYTQKSLSLSLGK
light: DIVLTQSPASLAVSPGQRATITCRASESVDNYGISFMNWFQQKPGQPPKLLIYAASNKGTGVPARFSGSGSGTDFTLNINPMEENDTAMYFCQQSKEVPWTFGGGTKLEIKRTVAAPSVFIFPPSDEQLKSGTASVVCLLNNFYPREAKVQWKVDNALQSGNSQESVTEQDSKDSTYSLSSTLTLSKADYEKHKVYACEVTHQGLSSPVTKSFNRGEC
notes: Expressed in 293 cells and purified on protein A; also called 18A10 H8L2
For B1, the EC50 with PD-1-hIgGFc antigen [1] turned out to be 0.474 nM; with PD-1-his antigen, 0.04 nM; with PD-1-hIgGFc antigen [2], 1.83 nM.
